Measurements: IntAct's records for PubMed 23594738

B1: Protein lin-28 homolog A (Mus musculus), Q8K3Y3 (parent)
chain: MGSVSNQQFAGGCAKAAEKAPEEAPPDAARAADEPQLLHGAGICKWFNVRMGFGFLSMTARAGVALDPPVDVFVHQSKLHMEGFRSLKEGEAVEFTFKKSAKGLESIRVTGPGGVFCIGSERRPKGKNMQKRRSKGDRCYNCGGLDHHAKECKLPPQPKKCHFCQSINHMVASCPLKAQQGPSSQGKPAYFREEEEEIHSPALLPEAQN
partner: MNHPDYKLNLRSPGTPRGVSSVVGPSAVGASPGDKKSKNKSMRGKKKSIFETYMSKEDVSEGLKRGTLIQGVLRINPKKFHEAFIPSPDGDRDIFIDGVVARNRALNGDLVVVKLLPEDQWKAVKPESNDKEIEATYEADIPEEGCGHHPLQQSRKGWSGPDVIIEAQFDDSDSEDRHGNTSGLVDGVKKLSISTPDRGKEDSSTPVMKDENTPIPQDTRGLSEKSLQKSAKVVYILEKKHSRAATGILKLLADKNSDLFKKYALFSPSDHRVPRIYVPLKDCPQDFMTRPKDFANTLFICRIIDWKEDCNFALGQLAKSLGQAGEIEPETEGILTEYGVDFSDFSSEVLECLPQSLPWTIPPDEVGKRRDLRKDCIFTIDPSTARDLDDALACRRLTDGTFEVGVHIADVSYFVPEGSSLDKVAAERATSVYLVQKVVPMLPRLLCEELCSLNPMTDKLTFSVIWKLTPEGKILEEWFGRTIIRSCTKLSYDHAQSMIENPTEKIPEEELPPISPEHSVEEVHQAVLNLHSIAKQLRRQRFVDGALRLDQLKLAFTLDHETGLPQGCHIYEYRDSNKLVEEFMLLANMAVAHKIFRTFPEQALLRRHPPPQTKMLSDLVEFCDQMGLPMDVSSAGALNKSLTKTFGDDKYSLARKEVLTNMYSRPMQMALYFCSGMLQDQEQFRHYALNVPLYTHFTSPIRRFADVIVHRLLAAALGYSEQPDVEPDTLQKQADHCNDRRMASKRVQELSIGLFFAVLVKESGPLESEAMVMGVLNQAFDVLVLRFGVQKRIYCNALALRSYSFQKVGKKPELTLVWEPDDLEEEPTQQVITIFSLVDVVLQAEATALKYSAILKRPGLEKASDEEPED

Variants of: B1
Conditions: with di3l2_mouse Dis3l2, Q8CI75

effect of a mutation on the interaction	Variant
decreasing interaction strength	W46A
